The domain aggregation screens of Martell et al. (2025)

Test: soluble fraction after stress (log2 fold change); higher = more stays soluble; pooled small domains, quantitative proteomics
Conditions: stress: 50 degC
Summary of the method: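 Each library was heated to 50°C as a stress step. The libraries, made up of small protein domains, were pooled and analysed at high throughput by quantitative proteomics. The reported value is the base-two logarithm of the fold change in each protein's soluble amount after stress, taken as a measure of aggregation propensity. The higher the value, the more protein stays in solution.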

| Sequence | soluble fraction (log2) |
| --- | --- |
| HMSIMNLSEKIVVLRKSNGMSQEELAEKLYVSRQAVSRWEMGTAVPDSTNILQLGKLFHVTTDYLLNDEYE | -3.19 |
| HMVENATPEEREALNDIAMEAMGMVKDGKPTSAREFVQSQNLDNDQKILLWSLLDAPTRSALKTAEK | -0.133 |
| HMSTTILSFQNRVVIETLHNEGRSLRYIANYLGFSKATIFNELHRLNSEYRAELAQADFERKVSQR | -3.59 |
| HMAPTPAGNLRSLKSEIVNYTRQSSTAYVYTFKDLSSGELYTARASRYYAAAGDTAYISTAAGAITDM | 0.0171 |
| HMYSDIERAMTNAPEQFANKQAVLDFLNKNRIKKSEVDDYRIASLLKLYDDASPISKTEIISQVRT | 0.149 |
| HMTYLIKFDENGRRSDTYVAEEKTQEQVTELLEKGFVLITEEDYQLLVGNVDGKEYIRNADGTYSEYT | -0.0279 |
| HMDTYKGFIFEVVDKYFSPTLNQKIGQAKNKQGIVLLQTKPSFTQDPKVLIEELKLIIDRDNLKA | -0.145 |
| HMKIMSLSERHQKILELLKVNGIVSVNSLSRQLNVSSVTIRKDLGLLEEKKLLYRSHGGAIQID | -3.08 |
| HMREEFIGVLDGKVAIFHGRPERKGPLKEVTAIEVDKLPRQEQADLEKGLVIRTDKEKLQLMEGLAALLD | 0.289 |
| HMGPEVQLAYSEFLAKVKVGEVNDVMVKGNEIHGHFSDGRTFSTYSPNDPDLVEKLNKNKVMIKAAPP | 0.0475 |
| HMSMANKKDFILDTAQKLFMEQGFDQTSISQILEATQIARGTLYYYFSSKEEIMDAIIERTIEQ | -1.05 |
| HMNEYHRNISDEEFVRDIKETAIKLKKETLTGVEYSQNGKYHASTIIHRFGSWKKALELAELNTK | -0.056 |
| HMRRRVIGTLVMGDMSTDFKVLADGHTHRVLAAAISFHKAKPGDEVVILVPKSAPSKWAAVEHVMK | 0.458 |
| HMAEVHVDGVTYQFSNPEQAVKFARKIAKELGLKVEVHGETVHVK | -0.156 |
| HMELPVNSIRVPDVVGLSLREAMQAMTDAGVPWQSVQAKGVGFVSRQSPEAGTVTQLRRVRLELKLF | -2.58 |
| HMANTSAVIKQPGLVKLFAQHFVRNGFNAMKAAEAAGFVRPSPTFVRNLADSKPVKDAISELLGPYNDA | -0.0131 |
| HMDKNNLHSVLQDVPGIGPKRMKELMRAFGSVEGMKKAGLEELAAVKGMNHKAAEALIQFFR | 0.199 |
| HMRDSLVGLEGVVVREVDDETLAGKVQIGSMEWSARSESGRIPAGRRVVVLRAEGVHIVVKEV | -0.205 |
| HMYAGTVTQVKNNKVMLEFDGETVNVGDQFFILNSDGKKVAIVEITAAKNKKALANVLKGKAVVDGTTQAK | -0.111 |

| Sequence | soluble fraction (log2) |
| --- | --- |
| HMTLYQIGDKVVHPMHGAGVIDSVVQRKVSGQVQEFYLLKLSVGNMVVMVPTDNTGEIGMRP | -1.01 |
| HMTVRLSVSADGKFFWNESQVSEEELFPRLQAEAAKEPQPDLHIRGDKNVRYEFVAQAMAAAQRAGVRKI | -0.404 |
| HMSHYEYKVGDRVNLLDYDDFGILYKEKDNFYNVVVYYNGEFVEVNVKRITLEVAAKELYPEGYDLSTLFV | -4.14 |
| HMGSEYILTIIPTPADATVFINGVKKNSASGVNGQILSWEVTKEGYIPQSGTFTINGKNETIEVVLQPQT | 0.00105 |
| HMGDLAAAGNHTLEVMGFPQHPDESYRHFVGNGIPKLIERMLPAGHDKETEQKAYDIFMEYYSAHK | 0.227 |
| HMRAKPLILLDGREISAEELFSLDKNSIKSIEVLKDETALAQYGEKAKNGVVLVVTKSAAAS | 0.246 |
| HMEKRIIMLEELKKQVYEANMELPRRGLITYTWGNVSGIDRESGNFVIKPSGVDYDKLKPEDMVVMDL | -0.0887 |
| HMSVLRLGNRGPDVRKLQLLLNSTLVPSPQLTVDGDFGKRTEQAVVTFQQMRGLPQDGIVGQRTWALLGQT | -0.518 |
| HMEKVDAISQSILDVLKKNNGYLAVTDKSDPDEIYGLFQISKKTFKKAIGSLYRDRLISIEEEGIRLR | 0.116 |
| HMEHGQWLSEAQGASLAADWLARRRGVLPLNARRHLSGLSDQIARQIEGGLSREAGLYTAHEMMESLDP | -0.224 |
| HMGEPVEIEEPITVRSLSEALGLKSSAIISHLMRQGVFATINQNLDKETAELIAAEYGIELRIK | 0.00995 |
| HMQDAVASEKIQLMSEALHARDTGDLLLAKEKVEKLIALAPNDKNIQALLLTINQSIEDKGL | 0.101 |
| HMNGADPYEQLGVTRDASDDELKAAHRKLSRENHPDTLMAKGMPPEFIEQANDKMARINAAWDQIRKERGI | 0.26 |
| HMHSESAAHQRTSVELFARIPETGNLQSAQRHFDVINQFGRFPHRNKILQRPSSEQEEAFLRQPGSG | 0.0792 |
| HMKLELSNDFYNKIRLARKENGLTQEDLAEKLNMKVGVIQKIENGVRQTDSNLMKISKFLGVEIYVE | -1.46 |
| HMASEKSEQLYQQMKLDIAGMPPDTRLPSIRALMRSYSVSQLLIDRTLGRLREEGALRKRFDGLYTYL | -2.06 |
| HMEKLNERLLYLRKNANLTQQQLADKLHISNKTISQWETGRTLPDIVMLVRLAEIYDMKLDELLNQ | -0.29 |
| HMTNYREILRLRSLGLNHSRIAESMGISRPTVIAALQRAQTQELNWQAAESLSDIDLAQRLNP | -0.395 |
| HMSTVTGLINYLSSGLIKGVGEATARKLVDHFGLDVLDIIQFNPQRLLEVDGIGEARAEMIASSFSEQK | -0.399 |
